Assay: yeast display, Sf9 membrane polyspecificity reagent, FACS + sequencing; frameworks hold sequencing errors
Summary of the method: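 Genes from sorted yeast were amplified by colony PCR, read by MiSeq 2 × 250 sequencing and filtered on CDR length. These cells carried a synthetic nanobody library in Saccharomyces cerevisiae BJ5465 and were sorted by FACS into low and high (top ~1%) gates on anti-HA and streptavidin fluorescence. Polyreactivity is labelled according to the gate of origin.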

Row | Sequence | polyreactivity (PSR sort gate)
1 | QVQLVESGGGLVQAGGSLRLSCADSGIIFNYYAMGWSRQAPGKEREFVASITSSGSSTYYADSVKGRFTITRDNAKNTVYLQMNSLKPEDTAVYYCAARYLWPKQGGGWGYYSCGQGTQVTVSS | high polyreactivity
2 | QFQLVESGGGLVQAGGRLRLSCAASGSIFYRNAMGWYRQAPGKERELVAAISASGGSTYYADSVKGRFTISRDNEKNTVYLQMIILKPEDTAVYYCDVEYRKSRSYAPMGYWGQGTQVTVSS | high polyreactivity
3 | QLQLVESGGGLVQAGASLRLSCAASGFIFKYNAMGWYRQAPCKERELVSAISRGTSTYYADSVKGRFTISRDNAKNTVYLQLNSLKPEDTAVYYCEATGRRPGQKYMGYDYWGQGTQVTVSS | high polyreactivity
4 | QVQLVESGGGLVQAGGSLRLICAASGIIFDGNAMGWYRQAPGKERELVASITSDSSTNYADSVKGRFTISRDNAKNTVYLQMNSLKPEDTAVYYCAADHWIAPRRDYWGQGTQVTVSS | low polyreactivity
5 | QVQLVESGGCLVQAGGSLRLTCAASGRTFYRYAMGWSRQAPRKERELVAAITTSGGSTYYADSVKGRFTISRDNAMTTVFLQKNSLNPDDTEVYYCAATYYGYHIRDDYWGQGTQVTVSS | low polyreactivity
6 | QVQLVESGGGLVQAGGSLRLSCAASGRTFYWYTMGWYRQAPGKERELVAAISTRGVRTYYADSVKGRFTISRDNAKNTVYLQMNSLKPEDTAVYYGNDEYNPPYYTSHDDSDYWGQGTHVTVSS | low polyreactivity
7 | QVQLVESGAGLVQAGGSLRLSCAASGSIFYVYAMGWYRQAPGKERELVAAISSSAGSTYYADSVKGRFTISRDNAKNTVYLQMNSLKPEDTAVYYCAAKVRYSLRKYYYWGQGTQVTVSS | high polyreactivity
8 | QVQLVESGGGLVQAGGSLRLSCAASGRTFYEYTIGWYRQAPGKERELVAAITWSVGSTYYADSVKGRFTISRDIAKNTVYLQMNSLKPEETAVYDCAAYYYVWYYYWGQGTQVTVSS | low polyreactivity
9 | QVQLVESGGGLVQAGGSLRLSCAASGSTFPPYAMGWYRQAPGKERELVAAITASGGRTYYADSVKGRFTLSRDNAKNTVYLQMNSLKPEDTAVYYCAALRGSTYDYWGQGTQVTVSS | high polyreactivity
10 | QVQLVESGGGLVQARGSHRLSCAASGRTFVTNAMGWYRQAPGKERELVAAIRWSSDSTYYADSVKGRFTISRVIAKNTVYLQMNSLKPEYTAVYYCAARIPKQQGYGYWGQGTQVTVSS | high polyreactivity
11 | QVQLVESGGGLVQAGGSLRLSCAASGRIFAYYAMGWYRQAPGKERELVAAITTNGGGTYYADSVKGRFTISRDNAKNTFYLQMNSLKPEDTGVYYCNAVKQRSSIFDYWGQGTQVTVSS | low polyreactivity
12 | QDQLVESGGGLVQAGGSLRLSCASSGFTFSKNAMGWYRQAPGKERELVAAISRGGGRTYYADSVKGRFTISRDNAKNTVYLQMNSLKPEDTAVYYCNVEKVGPGYDYWGQGTQVTVSS | high polyreactivity
13 | QVQLVESGGGLVQAGGSLRLSCAASGSTFGKYAMGWYRQAPGKEREFVAAITWSGGRTYYADSVKGRFTISRDNAKNTVYLQMNSLKPEDTAVDYCAALWAYYSRGYYWGQGTQVTVSW | high polyreactivity
14 | QVQHVESGGGLVQAGGSLRLSCAASGRTFITYAMGWYRQGPGKERELVATISGGGGTNYADSVKGRFTISRDNAKNTVYLQMNSLKPEDTAVYYCNKRAWYVYTHFDYWGLGTQVTVSS | low polyreactivity
15 | QVQLVQSGGGLVQAGGSLRLSCAASGITFWGNAMGSYRQAPGKEREFIARINWSGGRTYYAESVKGRFTISRDNEKNNVYLQMNSLKPEDTAVYYCAATSLIYGYRTYDYWGQGTQVTVSS | high polyreactivity
16 | QVQLVESGGGLDQAGGSLRLSCAASVNIFIYNTMGWYRQAPGKERELVAAITSDDSTKYADSVKGRFTISRDNAKNPVYLQMNTLKPEDTAVYYCAKRYYHPYWIDYDYWGQGTHVTVSS | low polyreactivity
17 | QVQLVESGGGLVQAGGSLRLSCAASGSTFNYYAMGWYRQAPGKERELVARISWSGSTYADSVKGRFTISRDNAKNTVYLQMNSLKPEDTAVYYCAAPYVQKSHRGMDYWGQGTQVTVSS | low polyreactivity
18 | QVQLVESGGGLVQAGGSLRLSCAASGSIFGYYDMGWYRQAPGKEREFVAASTFRGGRTYYADSVKGRFTISRDNEKNTVYIQMYSLKPEDTAVDFCAAGYHHRWGNYWGQGTQVTVSS | high polyreactivity
19 | QVQLVESGGGLVQAGGSLRLSCAASGRIFTGYDMGWYRQAPGKERELVAAISRGGSTNYADSVKGRFTISRDNAKNTVYLQMNSLKPEDTAVYYCADGVHWDRGDYWVQGTQVTVSS | low polyreactivity
20 | QVQLVESGGGIVQAGGSLRLSCASSGFTFNLYAMGWYRHAPGNERELVAAINWSGGTYYADSVKGRFTISRDNAKNNVYLQMKILKPEDTAVYYCNARYVYHSSFAGFDYWGQGTQVTVSS | low polyreactivity
21 | QVQLVESGVGLVQARGSLRLSSAASGITLPKYAMGWYRQEHGKERELVAAISRRGGITYYADSVKGRFTISRDNAKNTVYVQMNSLKPEDTAVYYCAADRTDTRGFDYWGQGTQVTVSS | high polyreactivity
22 | QVQLVESGGGLVQAGGSLRLSCDASGIIFPRYAMGGYRQAPGKERELVAAITIGGRTNYADSVKGRFTISRDNAKNTVYLQMTSLKPEDTAVYYCAAQTYVPYYEYDYWGQGTQVTVSS | low polyreactivity

Row | Sequence | polyreactivity (PSR sort gate)
23 | QVQLVESGGGLVQAGGSLRLSCAASGRTFRLNGMGWYRQAPGKDRELVAAITWSGGRTYYADSVKGRFTISRDNAKNTVYLQKNSLKPEDTAVYYCAAGKSSYGIPKYYYWGQGTQVTVSS | high polyreactivity
24 | QVQLVESGGGLVQAGGSLRLSCAASGFIFHSYDMGWYRPAPRKERELVASISRGGGSTYYADSVKGRFTISRDNAMNTVYLQMNSLKPEDTAVYDCSARVYSLGYGGDYWGQGTQVTVSS | high polyreactivity
25 | QVQLVESGGGLVQAGGSLRLSCAASGSIFSGYDMGWYRQAPGNERELVAVISWSTTSTYYADSVKGRFTISRDNAKNTVYLQMNSLKPEDTAVYYCNAEAYQYWEFDYWGQGSQVTVSS | low polyreactivity
26 | QVQLVESGGGLVQAGGSLRLSCAASGITFGGNAMGWYRQAPGKERELVAAISGRGGRTYYADSVKGRFTISRDTAKNTVYLQMNSLKPEDTAVYYCAGGGRVRYDYWGQGTQVTVSS | low polyreactivity
27 | QVQLVESGGGLVQAGGSLRLSCAASGITFTVNAMGWYRQSPGKERELVAAISWSGGSTYYADSVKGRFTISRDNAKNTVYLQMNSLKPEDTAVYYCNAVLYRFAYNYWGQGTQVTVSS | low polyreactivity
28 | QVQLVESVGGLVQAGGCLRLSCDASGFIFTYVMGWYRQAAGKERELVAVITNGGSTYYADSVKGRFTISRDNAKNSFYLQMNSLKPEDTAVYYCAARDRFRYDAYYYWGLGTQVTVSS | high polyreactivity
29 | QVQLVESGVGLVQAGGSLRLSCASSGLTFNYYAIGWYRQAPGKERELVAAISSDGRTDYADSVKGRFTISRDNAKNTVYLQMNSLKPEDTAFYSCAVEYQSPDDYWGQGTQVTVSS | low polyreactivity
30 | QVQLVESGGGLVEAGGSLRLSCAASGGIFPVNAIGWYRQAPGKERELVATITYDGANTYYADSVKGRFTISRDNAKNTVYLQMNRLKPEDTAVYYCAKDRLSFYGYISYIGYGYDYWGQGTQVTVSS | low polyreactivity
31 | QVQLVESVGGLGQARVRLRLSCAASGITFYRYAMGWYRQAPGKERELVAAITSRGTSTYYADSVKGRFTISRDNAKNTVYLQMNSLKPEDTAVYYCAAVLFVGDGGYDYWGQGTQVTVSS | high polyreactivity
32 | QVQLVESGGGLVQAGGSLRLSCAASGSTFITYAMGWYRQAPGKERELVAAISWSGVGTYYADSVKGRFTISRDNAKNTVYLQMNSLKPEDTAVYYCAVDRIYYYTYGVYYWGQGTQVTVSS | high polyreactivity
33 | QVQLVESGGGLVQAGGSLRLSCAASGSTFVPYAMGWYRQAPGKERELVARISRRGGSSTYYADSVKGRFTISRDNAKNTVYLQMNSLKPEDTAVYYCNKGHITFASVSSGPSPGGYWGQGTQVTVSS | low polyreactivity
34 | QVQLVESGGGLVQAGGSLRLSCAASGRTFPRNAMGWYRQAPGKERELVARINWSGGSTTYADSVKGRFTISRDNAKNTVYLQMNSLKPEDTAVYYCNARPYTSSFTKYGPSGYWGQGTQVTVSS | high polyreactivity
35 | QGQLVESGGGLVQEGGSLRLSCAASGSTFKRYVMGWYRQAPGKERELVAAITWSGTRTYYADSVKGRFTISRDNAKNTVYLQMNSLKPVDTAVYYCAARLYGGYDWGQGTQVTVSS | high polyreactivity
36 | QVQLVESGGGLVQAGGSLRLSCAASGSIFDNAMGWYRQAPGKERELVAAISLSGSRTYYADSVKGRFTISRDNAKNTDYLQMNSLKPEDTAVYYCNTELVYYSTYDYWGQGTQVTVSS | low polyreactivity
37 | QVHLVESGGGLVKAGGSLRLSCAASGSIFTWYAMGWYRQEPGKERELVAAITWRGGSTYYADSVKGRFTISRDNAKNTVYLQMNSLKPEDTAVYYCAAAGRSGKSLLQYGYWGQGTQVTVSS | high polyreactivity
38 | QVQRVESGGGLVQAGGSLRLSCAASGFIFDGYAMGWYRQAPGKERELVAAIDSGGDRTYYADSVKGRFTISRDNAKNTVYLLMNSLKPEDTAVYYCAADSSDPTGYEYGGQGTQVTVSS | low polyreactivity
39 | QVQLVESGGGLVQAGGSLRLSCAASGSTFGWNAMGWYRQAPGKERELVAAITADDDDTYYADSVKGRFTISRDNAKNTVYLQMNSLKPEDTAVYYCATEKWFWYGDWYDYWGQGTQVTLSS | high polyreactivity
40 | QVHLVESGGGLVQAGGSRRLSCAASGRIFSRYTMGCYRQAPGKERELVAVNTSGGSTNYADSVKGRFTISRDNAKNTVYLQMNSLKPEDTAVYYCNAVRFTYGGYLRRYDYWGQGTQVTVSS | high polyreactivity
41 | QVQLVESGGGLVQAGGSLRLSCAGSGRIFYVYAMGWYRQAPGKERELVAAISRGGSTNYADSVKGRFTISRDNAKNTVYLQMNSLKPEDTAVYYCAASSLPHYSFRHSYLYEYWGQGTQVTVSS | low polyreactivity
42 | QVQLVESGGGLVQAGGSLRLSCAASGRTLGTYAMGWYRQAPGKERELVAAITSGGSTYYADSVKGRFTISRDNAKNTVYLQMNSLKPEDTAVYYRATYSYYYWGQGTQVTVSS | low polyreactivity
43 | QVQLVESGGGLVQAGGRLRLSCAATGRTFRTYVMGWYRQGPGKEREMFAAITWSAGRTYYADSVKGRFTISRDNAQNTVYLQMNSLKPEDTAVYYCATLPTYYLRSYGLDYWGQGTQVTVSS | high polyreactivity

— the nanobody polyreactivity screen of Harvey et al. (2022)
